Measured values published in ChEMBL document CHEMBL2074524, “Delineating the contribution of secretory transporters in the efflux of etoposide using Madin-Darby canine kidney (MDCK) cells overexpressing P-glycoprotein (Pgp), multidrug resistance-associated protein (MRP1), and canalicular multispecific organic anion transporter (cMOAT)” (Drug Metab Dispos, 2002).
One block for each molecule: values may come before it.

Columns and labels:
[1] = target: Multidrug resistance-associated protein 1 (Homo sapiens, UniProt P33527); test: TP_TRANSPORTER: transepithelial transport (basal to apical) in MRP1-expressing MDCKII cells; assay type: functional, cell-based; conditions: dog, mdck-ii
[2] = tested on: COc1cc([C@@H]2c3cc4c(cc3[C@@H](O[C@@H]3O[C@@H]5CO[C@@H](C)O[C@H]5[C@H](O)[C@H]3O)[C@H]3COC(=O)[C@H]23)OCO4)cc(OC)c1O; test: TP_TRANSPORTER: transepithelial transport (basal to apical) in MDR1-expressing MDCKII cells; assay type: functional, cell-based, MDCK-II
[3] = substrate: COc1cc([C@@H]2c3cc4c(cc3[C@@H](O[C@@H]3O[C@@H]5CO[C@@H](C)O[C@H]5[C@H](O)[C@H]3O)[C@H]3COC(=O)[C@H]23)OCO4)cc(OC)c1O; test: TP_TRANSPORTER: transepithelial transport (basal to apical) in MRP2-expressing MDCKII cells; assay type: functional, cell-based, MDCK-II

Chain of Multidrug resistance-associated protein 1 (P33527 whole entry): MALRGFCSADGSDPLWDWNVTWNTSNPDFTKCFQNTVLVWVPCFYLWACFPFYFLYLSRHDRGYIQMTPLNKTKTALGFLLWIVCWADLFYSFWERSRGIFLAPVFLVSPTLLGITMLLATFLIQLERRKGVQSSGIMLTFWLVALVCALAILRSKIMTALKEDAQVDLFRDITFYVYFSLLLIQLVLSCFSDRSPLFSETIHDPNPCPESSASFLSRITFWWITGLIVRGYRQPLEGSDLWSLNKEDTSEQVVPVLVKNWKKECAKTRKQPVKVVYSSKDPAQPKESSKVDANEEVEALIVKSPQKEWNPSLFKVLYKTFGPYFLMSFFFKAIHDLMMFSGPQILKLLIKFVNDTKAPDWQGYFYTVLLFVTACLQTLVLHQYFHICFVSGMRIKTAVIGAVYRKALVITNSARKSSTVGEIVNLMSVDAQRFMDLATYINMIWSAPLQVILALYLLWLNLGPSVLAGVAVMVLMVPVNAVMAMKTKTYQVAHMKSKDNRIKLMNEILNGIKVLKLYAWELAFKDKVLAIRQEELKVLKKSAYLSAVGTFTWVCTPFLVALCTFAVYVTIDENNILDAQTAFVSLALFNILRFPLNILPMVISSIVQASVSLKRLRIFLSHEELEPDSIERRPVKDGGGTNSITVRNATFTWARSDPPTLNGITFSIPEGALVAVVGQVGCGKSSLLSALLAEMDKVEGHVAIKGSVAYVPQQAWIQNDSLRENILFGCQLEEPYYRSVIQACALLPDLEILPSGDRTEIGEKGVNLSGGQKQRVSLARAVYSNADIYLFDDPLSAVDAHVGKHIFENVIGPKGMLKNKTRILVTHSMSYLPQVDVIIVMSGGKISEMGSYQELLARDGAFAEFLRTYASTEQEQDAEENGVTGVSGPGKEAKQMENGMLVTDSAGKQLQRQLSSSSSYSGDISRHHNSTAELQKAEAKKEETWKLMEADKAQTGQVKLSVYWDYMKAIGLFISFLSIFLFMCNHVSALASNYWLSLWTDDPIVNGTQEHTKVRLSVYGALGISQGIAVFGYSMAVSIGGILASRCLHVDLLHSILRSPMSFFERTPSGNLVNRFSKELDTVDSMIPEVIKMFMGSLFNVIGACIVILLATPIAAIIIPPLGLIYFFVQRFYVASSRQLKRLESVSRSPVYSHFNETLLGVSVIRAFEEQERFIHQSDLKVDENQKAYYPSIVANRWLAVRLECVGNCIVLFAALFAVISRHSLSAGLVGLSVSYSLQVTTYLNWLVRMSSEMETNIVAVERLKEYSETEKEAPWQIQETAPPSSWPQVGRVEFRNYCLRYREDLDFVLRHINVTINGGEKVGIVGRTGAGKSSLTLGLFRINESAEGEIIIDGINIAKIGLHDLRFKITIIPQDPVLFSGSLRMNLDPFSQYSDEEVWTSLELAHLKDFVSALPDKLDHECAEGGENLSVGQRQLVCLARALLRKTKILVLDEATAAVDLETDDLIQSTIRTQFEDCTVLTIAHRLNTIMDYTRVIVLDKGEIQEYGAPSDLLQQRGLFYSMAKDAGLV

- Activity [1]: is not a substrate [-]
Molecule: COc1cc([C@@H]2c3cc4c(cc3[C@@H](O[C@@H]3O[C@@H]5CO[C@@H](C)O[C@H]5[C@H](O)[C@H]3O)[C@H]3COC(=O)[C@H]23)OCO4)cc(OC)c1O [ETOPOSIDE]

Molecule: ATP-dependent translocase ABCB1 (Homo sapiens)
- Km [2]: 255 µM

B1: ATP-binding cassette sub-family C member 2 (Homo sapiens) (protein)
chain: MLEKFCNSTFWNSSFLDSPEADLPLCFEQTVLVWIPLGYLWLLAPWQLLHVYKSRTKRSSTTKLYLAKQVFVGFLLILAAIELALVLTEDSGQATVPAVRYTNPSLYLGTWLLVLLIQYSRQWCVQKNSWFLSLFWILSILCGTFQFQTLIRTLLQGDNSNLAYSCLFFISYGFQILILIFSAFSENNESSNNPSSIASFLSSITYSWYDSIILKGYKRPLTLEDVWEVDEEMKTKTLVSKFETHMKRELQKARRALQRRQEKSSQQNSGARLPGLNKNQSQSQDALVLEDVEKKKKKSGTKKDVPKSWLMKALFKTFYMVLLKSFLLKLVNDIFTFVSPQLLKLLISFASDRDTYLWIGYLCAILLFTAALIQSFCLQCYFQLCFKLGVKVRTAIMASVYKKALTLSNLARKEYTVGETVNLMSVDAQKLMDVTNFMHMLWSSVLQIVLSIFFLWRELGPSVLAGVGVMVLVIPINAILSTKSKTIQVKNMKNKDKRLKIMNEILSGIKILKYFAWEPSFRDQVQNLRKKELKNLLAFSQLQCVVIFVFQLTPVLVSVVTFSVYVLVDSNNILDAQKAFTSITLFNILRFPLSMLPMMISSMLQASVSTERLEKYLGGDDLDTSAIRHDCNFDKAMQFSEASFTWEHDSEATVRDVNLDIMAGQLVAVIGPVGSGKSSLISAMLGEMENVHGHITIKGTTAYVPQQSWIQNGTIKDNILFGTEFNEKRYQQVLEACALLPDLEMLPGGDLAEIGEKGINLSGGQKQRISLARATYQNLDIYLLDDPLSAVDAHVGKHIFNKVLGPNGLLKGKTRLLVTHSMHFLPQVDEIVVLGNGTIVEKGSYSALLAKKGEFAKNLKTFLRHTGPEEEATVHDGSEEEDDDYGLISSVEEIPEDAASITMRRENSFRRTLSRSSRSNGRHLKSLRNSLKTRNVNSLKEDEELVKGQKLIKKEFIETGKVKFSIYLEYLQAIGLFSIFFIILAFVMNSVAFIGSNLWLSAWTSDSKIFNSTDYPASQRDMRVGVYGALGLAQGIFVFIAHFWSAFGFVHASNILHKQLLNNILRAPMRFFDTTPTGRIVNRFAGDISTVDDTLPQSLRSWITCFLGIISTLVMICMATPVFTIIVIPLGIIYVSVQMFYVSTSRQLRRLDSVTRSPIYSHFSETVSGLPVIRAFEHQQRFLKHNEVRIDTNQKCVFSWITSNRWLAIRLELVGNLTVFFSALMMVIYRDTLSGDTVGFVLSNALNITQTLNWLVRMTSEIETNIVAVERITEYTKVENEAPWVTDKRPPPDWPSKGKIQFNNYQVRYRPELDLVLRGITCDIGSMEKIGVVGRTGAGKSSLTNCLFRILEAAGGQIIIDGVDIASIGLHDLREKLTIIPQDPILFSGSLRMNLDPFNNYSDEEIWKALELAHLKSFVASLQLGLSHEVTEAGGNLSIGQRQLLCLGRALLRKSKILVLDEATAAVDLETDNLIQTTIQNEFAHCTVITIAHRLHTIMDSDKVMVLDNGKIIECGSPEELLQIPGPFYFMAKEAGIENVNSTKF
- Km [3]: 617 µM
